Measured values reported in paper PMC5663815, “Macrophage migration inhibitory factor (MIF) modulates trophic signaling through interaction with serine protease HTRA1” (Cellular and Molecular Life Sciences: CMLS, 2017).

Biological target: T1, Recombinant human HTRA1 (R&D Systems, 2916-SE) (human, UniProt Q92743 23-480, RED-NHS dye label (Monolith NT Protein Labeling Kit RED-NHS), molar dye to protein ratio 5:1)
T1 construct: Serine protease HTRA1, human, recombinant, R&D Systems catalogue 2916-SE; In the functional rows the HTRA1 was full-length HTRA1 (pcDNA3) in medium of stably transfected HEK293 cells, not this bought protein; also called labeled HTRA1; source: bought: R&D Systems, 2916-SE
Test: MST; labeled HTRA1 constant at 65 nM, unlabeled MIF titrated 2.28 nM to 1 µM; 50 mM Tris, 0.05% Tween-20, pH 8.0; 20 min at RT, 25 °C; Monolith NT.115, 40% LED, 80% MST power; Thermophoresis + T-jump signal
Settings: both partners purified

T1 sequence (Q92743 23-480): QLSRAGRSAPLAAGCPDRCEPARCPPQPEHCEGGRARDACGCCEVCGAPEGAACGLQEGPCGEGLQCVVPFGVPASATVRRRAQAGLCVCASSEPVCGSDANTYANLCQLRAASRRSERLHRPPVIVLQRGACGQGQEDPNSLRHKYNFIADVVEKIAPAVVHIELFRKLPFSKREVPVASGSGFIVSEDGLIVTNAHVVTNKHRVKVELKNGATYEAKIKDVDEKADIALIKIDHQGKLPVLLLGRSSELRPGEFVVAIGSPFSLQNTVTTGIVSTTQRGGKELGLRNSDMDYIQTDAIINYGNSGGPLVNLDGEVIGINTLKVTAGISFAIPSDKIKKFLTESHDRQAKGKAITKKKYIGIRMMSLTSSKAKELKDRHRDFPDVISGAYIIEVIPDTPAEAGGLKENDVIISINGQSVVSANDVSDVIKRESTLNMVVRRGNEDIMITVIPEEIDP

B1: MIF (Pepro-Tech, 300-69) (natural protein, UniProt P14174 1-115, looked up)
chain: MPMFIVNTNVPRASVPDGFLSELTQQLAQATGKPPQYIAVHVVPDQLMAFGGSSEPCALCSLHSIGKIGGAQNRSYSKLLCGLLAERLRISPDRVYINYYDMNAANVGWNNSTFA
notes: also called unlabeled MIF; non-labeled MIF; source: bought: Pepro-Tech, 300-69
B1 was tested. Which Kd did it give?
Its Kd is 147 nM.
